“Also recorded” adds a separate entry of the source.

Series [1] can be described thus: Fibrillation (thioflavin T), shaking at 37 °C. In kind it is physicochemical. The settings on record: 60 μM in 100 mM sodium phosphate, pH 8.0, 37 °C; for Fibrillation lag time: shaking 960 rpm, 1 μM ThT (444/485 nm), lag time = x-intercept, two HPLC fractions, each in triplicate or quadruplicate, two days; for fibrillation: vigorous shaking, ThT. How it is done:
Each insulin lispro variant was subjected to continuous, vigorous shaking at 37 °C to assess its stability against physical denaturation; fibrillation was monitored with the dye thioflavin T, (Fig. 4A).
Figure 4 Fibrillation of lispro variants.A, lispro variants (60 μM in 100 mM phosphate buffer, pH 8.0) were incubated at 37 °C with vigorous shaking; fibril formation was monitored by ThT fluorescence. Fibrillation runs were performed on two separate HPLC fractions, each in triplicate or quadruplicate, on two separate days. B–E, TEM images of lispro (B), KP-4R-F (C), KP-4S-F (D), and KP-44-diF (E) aggregates. F, ANS emission spectra of lispro variants (1 μM lispro variant labeled with 5 μM ANS in 100 mM phosphate buffer, pH 8.0). The data presented here indicate the mean ± SD for each variant from measurements of three separate HPLC fractions. 44-diF, 4,4-difluoroproline; 4R-F, 4R-fluoroproline; 4S-F, 4S-fluoroproline; ThT, thioflavin T.
Lispro samples (60 μM in 100 mM sodium phosphate buffer, pH 8.0) were centrifuged (22,000g, 1 h, 4 °C); 1 μM thioflavin T was then added. Each lispro variant was shaken continuously in a 96-well, black, clear bottom plate at 37 °C, and fluorescence (444 nm excitation, 485 nm emission) was monitored over time. Fibrillation runs were performed on two separate HPLC fractions, each in triplicate or quadruplicate, on two separate days. The growth phase of each replicate was fit to a linear function; lag times were reported as the x-intercept. […]
(§1) Lispro samples (60 µM in 100 mM sodium phosphate, pH 8.0) were centrifuged at 22,000 g for 1 h at 4°C, before 1 µM thioflavin T (ThT) was added. Each lispro (200 µL) was added to a 96 -well, black, clear bottom plate (Greiner Bio -One) and sealed. Samples were shaken continuously at 960 rpm on a Varioskan multimode plate reader at 37°C, and fluorescence readings were recorded every 15 min (444 nm excitation, 485 nm em ission). Fibrillation runs were performed on at least two separate HPLC fractions, each in triplicate or quadruplicate, and on two different days. The growth phase of each fibrillation replicate was fit to a linear function; f ibrillation lag times were reported as the x-intercept of this fit. Fibril samples were stored at 4°C until analysis by transmission electron microscopy (TEM).
Transmission electron microscopy: […]

The nature of series [2]: Analytical ultracentrifugation, velocity sedimentation: hydrodynamic parameters. In kind it is physicochemical. Particulars: 140-206 µM in 100 mM phosphate buffer, pH 8.0, 60,000 RPM, 20 °C, brackets 95% confidence interval. How it is done: Lispro variants (140–206 μM in 100 mM phosphate buffer, pH 8.0) were analyzed by velocity sedimentation at the Canadian Center for Hydrodynamics at the University of Lethbridge using absorbance optics. All samples were measured at 60,000 RPM and 20 °C. Data were analyzed with UltraScan III version 4.0 release 6606 ([38]). Velocity data were initially fitted with the two-dimensional spectrum analysis ([39]) to determine meniscus position and time- and radially-invariant noise, and to generate molecular weight distributions. Two-dimensional spectrum analysis results were refined using the genetic algorithm approach ([40]). Sedimentation and diffusion coefficients derived from the genetic algorithm analysis were transformed to molar mass distributions, assuming a partial specific volume of 0.7248 ml/g for all lispro variants. The enhanced van Holde-Weischet analysis ([41]) was used to determine diffusion-corrected sedimentation coefficient distributions. For the Kd analysis, AUC data were fitted with a discrete model genetic algorithm approach ([29]), assuming the known molar mass of the monomer and floating the Kd, koff, total concentration, partial specific volumes, and frictional ratios as reported in Table S3. […]
Analytical ultracentrifugation:
Lispro variants were formulated at 140 -206 µM in 100 mM phosphate buffer, pH 8.0. Velocity sedimentation experiments were performed at the Canadian Center for Hydrodynamics at the University of Lethbridge using absorbance optics. High concentrations sample s were measured at 237 nm, intermediate concentration samples at 232 nm, and low concentration samples at 225 nm. All samples were measured at 60,000 RPM and 20°C in standard Beckman Coulter cell […]
housings fitted with 0.3 cm epon-charcoal centerpieces for the high concentration samples, and 1.2 cm epon-charcoal centerpieces for the intermediate and low concentration samples. All cells were fitted with sapphire windows. Data were analyzed with UltraScan III version 4.0 release 6606. (38) Velocity data were initially fitted with the two -dimensional spectrum analysis (39) to determine meniscus position and time - and radially-invariant noise, and to generate molecular weight distributions. 2DSA results were refined using the genetic algorithm (GA) approach. (40) Sedimentation and diffusion coefficients derived from the GA analysis were transformed to molar mass distributions (see Figure S2), assuming a partial specific volume of 0.7248 ml/g for all lispro variants. The enhanced van Holde -Weischet analysis (41) was used to determine diffusion - corrected sedimentation coefficient distributions. For the K d analysis, AUC data were fitted with a discrete model genetic algorithm (DMGA) approach,(29) assuming the known molar mass of the monomer, and floating the K d, koff, total concentration, partial specific volumes, and frictional […]
as §1
Transmission electron microscopy:
Lispro fibrils were briefly centrifuged (5 kg, 1 min), then washed twice and resuspended in ddH 2O.
Fibrils were stained with 2% uranyl acetate on a 300 -mesh formvar/carbon coated copper grid (Electron Microscopy Sciences) and imaged on a Tecnai T12 LaB6 […] transmission electron […]

The conditions of series [3]: cited from earlier work. From the text:
Removal of the constrained pyrrolidine ring of proline at position B28 grants additional conformational degrees of freedom and removes hydrophobic packing interactions at the dimer interface. […] However, the standard mutagenesis approach employed in the discovery of insulin lispro ([7]) (and other FDA-app ...

As for “KP-4R-F: insulin lispro with ProB29 replaced by 4R-fluoroproline”, in series [1], the Fibrillation lag time turned out to be 10.3 ± 2.4 h and the “fibrillation” value is recorded as “did not significantly change the fibrillation lag time”. In series [2], the “Partial specific volume PSV” value is 0.69 [0.69, 0.70] ml g-1; the “Dimer diffusion coefficient D” value was 1.31 [1.08, 1.55] µm2/s; the Dimer frictional ratio is 1.12 [0.90, 1.35]; the “Dimer sedimentation coefficient s” value was 1.99 [1.58, 2.39] S. In series [2], the “Monomer diffusion coefficient D” value is 1.20 [1.14, 1.25] µm2/s; the Monomer frictional ratio was 1.54 [1.47, 1.61]; the “Monomer sedimentation coefficient s” value was 0.90 [0.88, 0.93] S.
Take “KP-4S-F: insulin lispro with ProB29 replaced by 4S-fluoroproline”: in series [1], the Fibrillation lag time is 17.9 ± 0.8 h and the “fibrillation” value is listed as “stabilized against fibril formation; also recorded: extended lag time to fibril formation”. Moreover, in series [2], the “Partial specific volume PSV” value is 0.68 [0.67, 0.69] ml g-1; the “Dimer diffusion coefficient D” value is 1.20 [1.05, 1.35] µm2/s; the Dimer frictional ratio was 1.23 [1.08, 1.37]; the “Dimer sedimentation coefficient s” value was 1.87 [1.63, 2.10] S. Besides, in series [2], the “Monomer diffusion coefficient D” value is 1.32 [1.29, 1.36] µm2/s; the Monomer frictional ratio is 1.40 [1.35, 1.44]; the “Monomer sedimentation coefficient s” value is 1.03 [1.00, 1.05] S.
Take “KP-44-diF: insulin lispro with ProB29 replaced by 4,4-difluoroproline”: in series [1], the Fibrillation lag time was 9.0 ± 1.3 h and the “fibrillation” value is given as “did not significantly change the fibrillation lag time”. In series [2], the “Partial specific volume PSV” value is 0.67 [0.64, 0.70] ml g-1; the “Dimer diffusion coefficient D” value was 0.99 [0.84, 1.14] µm2/s; the Dimer frictional ratio is 1.50 [1.40, 1.60]; the “Dimer sedimentation coefficient s” value is 1.59 [1.30, 1.88] S. Besides, in series [2], the “Monomer diffusion coefficient D” value was 1.24 [1.16, 1.32] µm2/s; the Monomer frictional ratio was 1.50 [1.40, 1.60]; the “Monomer sedimentation coefficient s” value was 1.00 [0.95, 1.04] S.
Take “insulin lispro: fast-acting insulin with inversion of the residues ProB28 and LysB29; Humalog, Eli Lilly [reference compound]”: the Fibrillation lag time in series [1] came to 10.9 ± 2.2 h. In series [2], the “Partial specific volume PSV” value was 0.72 [0.70, 0.74] ml g-1; the “Dimer diffusion coefficient D” value was 1.10 [0.99, 1.21] µm2/s; the Dimer frictional ratio is 1.31 [1.20, 1.43]; the “Dimer sedimentation coefficient s” value was 1.48 [1.25, 1.72] S. Also, in series [2], the “Monomer diffusion coefficient D” value was 1.26 [1.16, 1.35] µm2/s; the Monomer frictional ratio is 1.44 [1.32, 1.57]; the “Monomer sedimentation coefficient s” value is 0.85 [0.81, 0.88] S. Also, in series [3], the “absorption” value is on record as “accelerate absorption”.

These data come from PMC11154709, “4S-fluorination of ProB29 in insulin lispro slows fibril formation” (The Journal of Biological Chemistry, 2024).
